Measured values reported in PMC515284, “Site-specific mutagenesis of Drosophila proliferating cell nuclear antigen enhances its effects on calf thymus DNA polymerase δ” (BMC Biochemistry, 2004).
Numbering of substitutions follows the chain as printed. Numbers in names are those of the source.

Target: T1, calf thymus DNA polymerase δ (two-subunit form) (bovine (endogenous in calf thymus), UniProt P28339 1-1106; P49004 1-469)
T1 construct: DNA polymerase δ larger, catalytic subunit p125, calf thymus (bovine); DNA polymerase δ smaller subunit p50, calf thymus (bovine); all experiments used the two-subunit form (p125 and p50); also called pol δ; calf thymus pol δ; source: purified from calf thymus (to apparent homogeneity)
Test: native gel or EMSA; nondenaturing PAGE band mobility shift of 32P-labelled 30-21-mer template-primer (0.1 pmol) with 10 ng pol δ and 70 ng PCNA; without MgCl2, 3 mM EDTA in incubation and gel buffer; essentially qualitative; the complex holds DNA as well
Details: both partners purified

T1 sequence (P28339 whole entry, stated change not applied, chain 1 of 2): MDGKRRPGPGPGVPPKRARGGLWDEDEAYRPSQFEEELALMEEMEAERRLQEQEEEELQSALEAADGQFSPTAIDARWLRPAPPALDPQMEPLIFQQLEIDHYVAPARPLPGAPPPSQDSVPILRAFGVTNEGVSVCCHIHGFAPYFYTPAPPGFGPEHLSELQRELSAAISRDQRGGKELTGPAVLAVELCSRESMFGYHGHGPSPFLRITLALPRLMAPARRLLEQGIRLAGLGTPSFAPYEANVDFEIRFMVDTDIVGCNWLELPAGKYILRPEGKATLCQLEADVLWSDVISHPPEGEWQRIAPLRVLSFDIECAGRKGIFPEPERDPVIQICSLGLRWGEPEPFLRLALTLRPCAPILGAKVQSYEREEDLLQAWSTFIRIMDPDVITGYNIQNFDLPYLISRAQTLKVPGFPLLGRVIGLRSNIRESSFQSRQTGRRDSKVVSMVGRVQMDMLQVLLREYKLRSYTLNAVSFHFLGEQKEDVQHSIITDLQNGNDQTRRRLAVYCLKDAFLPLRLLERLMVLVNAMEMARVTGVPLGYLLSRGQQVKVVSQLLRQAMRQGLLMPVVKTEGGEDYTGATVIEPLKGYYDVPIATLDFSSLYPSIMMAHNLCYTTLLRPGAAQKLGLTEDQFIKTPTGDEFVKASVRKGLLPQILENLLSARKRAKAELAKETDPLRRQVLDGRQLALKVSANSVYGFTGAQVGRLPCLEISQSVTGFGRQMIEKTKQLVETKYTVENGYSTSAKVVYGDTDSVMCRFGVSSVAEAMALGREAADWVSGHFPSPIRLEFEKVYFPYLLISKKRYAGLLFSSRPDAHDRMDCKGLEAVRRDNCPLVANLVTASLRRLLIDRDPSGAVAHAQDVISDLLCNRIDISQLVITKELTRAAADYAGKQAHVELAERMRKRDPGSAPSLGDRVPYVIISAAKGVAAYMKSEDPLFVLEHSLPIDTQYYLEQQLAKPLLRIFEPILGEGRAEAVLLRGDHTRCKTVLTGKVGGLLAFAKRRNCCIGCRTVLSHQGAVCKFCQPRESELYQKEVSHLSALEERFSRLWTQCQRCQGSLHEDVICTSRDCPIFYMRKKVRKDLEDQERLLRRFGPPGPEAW
T1 sequence (P49004 whole entry, stated change not applied, chain 2 of 2): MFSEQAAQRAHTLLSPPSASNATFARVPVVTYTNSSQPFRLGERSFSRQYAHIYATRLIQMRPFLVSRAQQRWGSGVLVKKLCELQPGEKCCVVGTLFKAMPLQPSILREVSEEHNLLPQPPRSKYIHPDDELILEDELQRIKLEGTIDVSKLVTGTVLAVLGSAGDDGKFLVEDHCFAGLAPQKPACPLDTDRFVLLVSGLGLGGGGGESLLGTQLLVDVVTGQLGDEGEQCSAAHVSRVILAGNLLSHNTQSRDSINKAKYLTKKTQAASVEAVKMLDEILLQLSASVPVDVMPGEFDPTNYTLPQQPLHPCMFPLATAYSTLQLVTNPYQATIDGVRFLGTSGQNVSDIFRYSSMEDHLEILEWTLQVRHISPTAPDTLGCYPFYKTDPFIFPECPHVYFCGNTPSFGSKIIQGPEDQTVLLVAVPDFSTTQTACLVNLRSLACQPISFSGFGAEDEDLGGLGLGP

B1: NH2-terminally his-tagged Drosophila PCNA with amino acids 119-133 replaced by the corresponding human sequence (other, Drosophila melanogaster | human, UniProt P17917 1-118, looked up)
chain: MFEARLGQATILKKILDAIKDLLNEATFDCSDSGIQLQAMDNSHVSLVSLTLRSDGFDKFRCDRNLSMGMNLGSMAKILKCANNEDNVTMKAQDNADTVTIMFESANQEKVSDYEMKLMDLDVEQLGIPEQEYSCVVRMPAMEFARICRDLAQFSESVVICCTKEGVKFSASGDVGTANIKLAQTGSVDKEEEAVIIEMQEPVTLTFACRYLNAFTKATPLSTQVQLSMCADVPLVVEYAIKDLGHIRYYLAPKIEDNET
notes: PCNA, Drosophila melanogaster, the stretch before the interdomain connector loop (up to residue 118); PCNA, Drosophila melanogaster, the stretch after the interdomain connector loop (from residue 134); source: E. coli M15 [pREP4], purified (Ni2+-IDA Sepharose); not shown: His tag, N-terminal, kept
  binding result: binds

B2: NH2-terminally his-tagged Drosophila PCNA with glutamine 123 mutated to valine (natural protein, Drosophila melanogaster, UniProt P17917 1-260, looked up)
chain: B1 chain with D120N, Q125H, Q131T, E132D, Y133F
notes: proliferating cell nuclear antigen (PCNA), Drosophila melanogaster, with Q123V; also called Q123V dPCNA; Q123V; source: E. coli M15 [pREP4], purified (Ni2+-IDA Sepharose); not shown: His tag, N-terminal, kept
  binding result: binds
